Test results from US20230303680A1 (UNIVERSIT T Z RICH, published 2023).
Numbering of substitutions follows the chain as printed. One block for each binder: values may come before it.

Experiments:
[1] = target: T1, human interleukin-2 (recombinant human IL-2, teceleukin) (human, UniProt P60568 21-153); assay: SPR, mAb immobilized, IL-2 injected
T1 construct: also called hIL-2; rhIL-2
Protocol: Chip surface was regenerated after every cycle using glycine buffer pH 1.5. Measurements were acquired at 20° C. and analysed on a Biacore T100 (GE Healthcare).

[2] = target: T1, human interleukin-2 (recombinant human …); assay: single-cycle surface plasmon resonance (SPR)
[3] = target: T1, human interleukin-2 (recombinant human …); assay: single-cycle SPR
[4] = target: T1, human interleukin-2 (recombinant human …); assay: SPR (Table 1)
mouse IL-2 = target: T2, mouse IL-2 (mouse, UniProt P04351 21-169); assay: SPR (Table 1)
T2 sequence (looked up): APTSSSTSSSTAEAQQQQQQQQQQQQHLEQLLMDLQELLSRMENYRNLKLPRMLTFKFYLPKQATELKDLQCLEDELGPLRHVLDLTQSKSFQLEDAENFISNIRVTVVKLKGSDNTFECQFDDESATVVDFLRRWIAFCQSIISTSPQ

T1 sequence (P60568 21-153 limits assumed): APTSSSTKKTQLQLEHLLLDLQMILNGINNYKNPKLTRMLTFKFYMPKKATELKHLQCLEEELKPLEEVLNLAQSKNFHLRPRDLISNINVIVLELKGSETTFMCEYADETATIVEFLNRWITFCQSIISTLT

Kd [3]: 64 nM
B2: UFKA-20 variant 2+9 (antibody, V domains shown)
VH: EVMLVESGGGLVKPGGSLKLSCAASGFSFSNYAMSWVRQTPERRLEWVALISGGGRYSYYPDSLKGRFTISRDSARNSLYLQMSSLRSEDTAMYYCARHMGKNDYLAWFAYWGQGTLVTVSS
VL: DIVMTQSPSSLAVSVGQKVTMSCKSSQSLLNSANQRNYLAWYQQKPGQSPKLLIYWASTRESGVPDRFIGSGSGTDFTLNISSVQAEDLADYFCQQYYSAPPWTFGGGTKLEIKR

Kd [3]: 0.186 nM
B3: UFKA-20 variant 5+9 (antibody, V domains shown)
VH: B2 VH with M100L, K102H
VL: B2 VL

More lines, now with the values behind:

B1: UFKA-20 (mouse anti-human IL-2 monoclonal antibody) (antibody, V domains shown)
VH: B2 VH with R56S, K102Y
VL: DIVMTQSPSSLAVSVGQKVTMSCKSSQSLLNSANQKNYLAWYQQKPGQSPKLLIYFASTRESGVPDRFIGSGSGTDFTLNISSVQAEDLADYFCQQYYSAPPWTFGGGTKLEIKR
notes: Full mouse heavy and light chains; also called UFKA-20-00; 1+6
Kd [1]: 2.3 nM
koff [1]: 0.000391 s⁻¹
kon [1]: 257000 M⁻¹ s⁻¹
Kd [2]: 0.788 nM

B4: F5111 (anti-human IL-2 mAb) (antibody, V domains shown)
VH: QLQLQESGPGLVKPSQTLSLTCTVSGGSISSGGYYWSWIRQHPGKGLEWIGYIYYSGSTYYNPSLKSRVTISVDTSKNQFSLKLSSVTAADTAVYYCARTPTVTGDWFDPWGRGTLVTVSS
VL: NFMLTQPHSVSESPGKTVTISCTRSSGSIASNYVQWYQQRPGSSPTTVIYEDNQRPSGVPDRFSGSIDSSSNSASLTISGLKTEDEADYYCQSYDSSNVVFGGGTKLTVL
Kd [4]: 1.88 nM
koff [4]: 0.00711 s⁻¹
kon [4]: 3.78e+06 M⁻¹ s⁻¹

B5: JES6-1 (anti-mouse IL-2 mAb) (antibody, V domains shown)
VH: EIQLQQSGPELRRPGSSVKLSCKASGYNITDYLIHWVRHRPEHGLEWIGWIDPEDGETRYAQKFQSKATLTADTSSNAAYMQLSSLTPEDTATYFCARSLDSTYIYPFAYWGQGTLVTVSS
VL: DIVMTQSPFSLAVSEGEMVTINCKSSQSLLSSGNQKNYLAWYQQKPGQSPKLLIYYASTGQSGVPDRFIGSGSGTDFTLTISDVQAEDLADYYCLQHYISPPTFGAGTKLELK
Kd (mouse IL-2): 5.6 nM
